The target of experiment [1] is FLT3 on the surface of MONOMAC-6 cells (FLT3-overexpressing AML cell line) (human) (UniProt P36888). Briefly: flow cytometry of Cy5.5+ MONOMAC-6 cells, 50 nM Cy5.5-conjugated nanoparticles, 1 h; negative control conjugate (background uptake).
In experiment [2] the target is T1, FLT3 on the surface of MONOMAC-6 cells (FLT3-overexpressing AML cell line) (human, UniProt P36888 27-993).
T1 construct: whole, on cells; Endogenous receptor on a cell line; also called FMS-like tyrosine kinase 3; FLT3 receptor
T1 sequence (looked up): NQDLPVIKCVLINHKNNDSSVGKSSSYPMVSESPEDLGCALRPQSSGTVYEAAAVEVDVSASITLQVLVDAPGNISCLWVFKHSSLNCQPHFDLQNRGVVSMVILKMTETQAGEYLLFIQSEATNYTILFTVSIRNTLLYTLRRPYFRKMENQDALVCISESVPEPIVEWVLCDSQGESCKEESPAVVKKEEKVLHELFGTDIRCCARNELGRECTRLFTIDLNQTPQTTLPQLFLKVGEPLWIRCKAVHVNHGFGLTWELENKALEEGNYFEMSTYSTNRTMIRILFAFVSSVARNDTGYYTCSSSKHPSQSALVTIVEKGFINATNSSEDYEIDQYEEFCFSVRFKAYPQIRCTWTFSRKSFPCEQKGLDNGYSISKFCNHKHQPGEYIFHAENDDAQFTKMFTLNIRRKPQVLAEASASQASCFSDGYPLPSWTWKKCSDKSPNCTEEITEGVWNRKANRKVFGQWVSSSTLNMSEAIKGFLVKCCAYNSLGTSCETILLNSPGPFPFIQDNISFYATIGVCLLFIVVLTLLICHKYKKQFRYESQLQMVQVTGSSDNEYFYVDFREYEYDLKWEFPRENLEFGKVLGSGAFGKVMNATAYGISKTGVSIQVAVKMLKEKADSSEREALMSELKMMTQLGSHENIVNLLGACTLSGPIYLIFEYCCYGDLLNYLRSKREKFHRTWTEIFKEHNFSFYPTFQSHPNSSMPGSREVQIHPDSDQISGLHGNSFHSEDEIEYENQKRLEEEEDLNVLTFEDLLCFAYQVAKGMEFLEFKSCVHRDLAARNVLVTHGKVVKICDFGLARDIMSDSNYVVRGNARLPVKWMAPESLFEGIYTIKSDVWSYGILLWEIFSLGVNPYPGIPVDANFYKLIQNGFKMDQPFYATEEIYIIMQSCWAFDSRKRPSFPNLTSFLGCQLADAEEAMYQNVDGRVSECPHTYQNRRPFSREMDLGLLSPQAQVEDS
As to the kind of experiment: flow cytometry uptake by FLT3-overexpressing AML cells, against control protein conjugated nanoparticles. As to the method:
FIG. 2(B) MONOMAC-6 cells were treated with Cy5.5-conjugated G7-FLT3L or G7-H2B nanoparticles for 24 hrs at the indicated doses. The proportion of Cy5.5⁺ cells were detected through flow cytometry analysis. FIG. 2(C) MONOMAC-6 and U937 cells were treated with 50 nM Cy5.5-conjugated G7-FLT3L or G7-H2B nanoparticles for 1 hr. The proportion of Cy5.5⁺ cells were detected through flow cytometry analysis. FIG. 2(D) MONOMAC-6 cells transfected with MSCV-PIG-miR-150 (miR-150-PIG) or MSCV-PIG (PIG) were treated with 50 nM Cy5.5-conjugated G7-FLT3L or G7-H2B nanoparticles for 1 hr. The proportion of Cy5.5⁺ cells were detected through flow cytometry analysis. Each experiment was repeated independently for at least three times. Average levels of at least three replicates are shown. FIG. 2(E) Cell viability (left panel) and apoptosis (right panel) of MONOMAC-6 cells treated with PBS (Ctrl), 50 nM G7-FLT3L or G7-H2B nanoparticles for 48 hr. *, P<0.05; **, P<0.01. […]
(A flow cytometer gives signals particle by particle.)

In experiment [3] the target is T1, FLT3 on the surface of MONOMAC-6 cells …. As to the kind of experiment: flow cytometry of Cy5.5+ MONOMAC-6 cells, 50 nM Cy5.5-conjugated nanoparticles, 1 h. An excerpt: FIG. 2(A) G7-NH₂ PAMAM dendrimers were first conjugated with the near-infrared dye Cy5.5 using an N-hydroxysuccinimide ester linker sulfo-SMCC. Next, the fluorescently-tagged G7-NH₂ (G7-Cy5.5) was conjugated to human recombinant FLT3L (i.e., the soluble FLT3L form with 155 amino acids; ProSpec-Tany Technogene Ltd., East Brunswick, N.J.) at a 1:2 ratio using the heterofunctional linker sulfosuccinimidyl 4-((N-maleimidomethyl) cyclohexane-1-carboxylate) (sulfo-SMCC), resulting in the G7-FLT3L conjugates. FIG. 2(B) MONOMAC-6 cells were treated with Cy5.5-conjugated G7-FLT3L or G7-H2B nanoparticles for 24 hrs at the indicated doses. The proportion of Cy5.5⁺ cells were detected through flow cytometry analysis. FIG. 2(C) MONOMAC-6 and U937 cells were treated with 50 nM Cy5.5-conjugated G7-FLT3L or G7-H2B nanoparticles for 1 hr. The proportion of Cy5.5⁺ cells were detected through flow cytometry analysis. FIG. 2(D) MONOMAC-6 cells transfected with MSCV-PIG-miR-150 (miR-150-PIG) or MSCV-PIG (PIG) were treated with 50 nM Cy5.5-conjugated G7-FLT3L or G7-H2B nanoparticles for 1 hr. The proportion of Cy5.5⁺ cells were detected through flow cytometry analysis. Each experiment was repeated independently for at least three times. Average levels of at least three replicates are shown. […]

The target is the same in experiment [4]. Briefly: flow cytometry of Cy5.5+ MONOMAC-6 cells after 24 h treatment with Cy5.5-conjugated nanoparticles, compared with G7-FLT3L.

For the molecule “G7-H2B dendrimers (Cy5.5-labelled G7 PAMAM dendrimer conjugated to histone H2B, negative control)”, the uptake ratio (proportion of Cy5.5+ cells) in experiment [1] was found to be 5.9%.

B1: G7-FLT3L dendrimers (Cy5.5-labelled G7 PAMAM dendrimer conjugated to human recombinant soluble FLT3L) (ligand, UniProt P49771 27-184, looked up)
chain: TQDCSFQHSPISSDFAVKIRELSDYLLQDYPVTVASNLQDEELCGGLWRLVLAQRWMERLKTVAGSKMQGLLERVNTEIHFVTKCAFQPPPSCLRFVQTNISRLLQETSEQLVALKPWITRQNFSRCLELQCQPDSSTLPPPWSPRPLEATAPTAPQP
modifications: conjugated through the sulfo-SMCC linker to a Cy5.5-labelled G7 PAMAM dendrimer (approximately 0.5-1 FLT3L molecules per dendrimer); attachment residue not stated
notes: extracellular domain; The protein is carried on a G7 PAMAM dendrimer labelled with Cy5.5; also called G7-FLT3L nanoparticles; G7-FLT3L conjugates
On to B1, for which the “fold specificity and efficiency in targeting and uptake against nanoparticles conjugated with control proteins” value in experiment [2] worked out at 4 times. In addition, the “uptake ratio (proportion of Cy5.5+ cells)” value in experiment [3] worked out at 23.6%.

B2: G7-Flt3L dendrimers (Cy5.5-labelled G7 PAMAM dendrimer conjugated to the synthetic 74-amino acid mouse Flt3L peptide) (peptide)
peptide: SSNFKVKFRELTDHLLKDYPVTVAVNLQDEKHCKALWSLFLAQRWIEQLKTVAGSKMQTLLEDVNTEIHFVTSC
modifications: conjugated to a Cy5.5-labelled G7 PAMAM dendrimer; attachment residue not stated
notes: also called G7-Flt3L nanoparticles; engineered mouse Flt3L peptide
On to B2, for which the binding result in experiment [4] is “binds”.
